From US20160279079A1, “COMPOSITIONS AND METHODS FOR TREATING BONE DISEASES” (INDIANA UNIVERSITY RESEARCH AND TECHNOLOGY CORPORATION, priority 2013, published 2016)

Key:
NFATc1 [1] = assay: Quantitative real-time PCR, NFATc1 mRNA in RAW264.7 cells; assay type: cell-based, mouse; settings: day 2
Description: (§1) METHOD EXAMPLE. Quantitative real-time PCR. Total RNA was extracted using an RNeasy Plus mini kit (Qiagen, Germantown, Md., USA). Reverse transcription was conducted with high capacity cDNA reverse transcription kits (Applied Biosystems, Carlsbad, Calif., USA), and quantitative real-time PCR was performed using ABI 7500 with Power SYBR green PCR master mix kits (Applied Biosystems). We evaluated mRNA levels of ATF4, Osteocalcin (OCN), NFATcl, c-Fos, tartrate-resistant acid phosphatase (TRAP), and osteoclast-associated receptor (OSCAR) with the PCR primers listed in Table 1. GAPDH was used for internal control. The relative mRNA abundance for the selected genes with respect to the level of GAPDH mRNA was expressed as a ratio of Streated/Scontrol, where Streated=mRNA level for the cells treated with chemical agents, and Scontrol=mRNA level for control cells.
(§2) METHOD EXAMPLE. Partial suppression of mRNA levels of NFATcl, c-Fos, TRAP, and OSCAR by salubrinal. […] On day 2, for instance, the RANKL-driven increase was 9.4±0.5 fold (NFATcl), 1.9±0.1 fold (c-fos), 165±4.2 fold (TRAP), and 467±22 fold (OSCAR). The reduction by 20 μM salubrinal was 46% (NFATcl), 32% (c-fos), 35% (TRAP), and 21% (OSCAR) (FIG. 5A).
(§3) METHOD EXAMPLE. Reduction of RANKL-induced NFATcl, c-Fos, TRAP, and OSCAR by guanabenz. […] The normalized level of “1” was defined as the level for the cells that were not treated with RANKL without administration of guanabenz.

[2] = system: osteoclast-associated receptor (OSCAR); assay: Quantitative real-time PCR, OSCAR mRNA in RAW264.7 cells; assay type: cell-based, mouse; settings: day 2
Description: as §1, §2, §3

c-Fos = assay: Quantitative real-time PCR, c-Fos mRNA in RAW264.7 cells; assay type: cell-based, mouse; settings: day 2
Description: as §1, §2, §3

[3] = system: tartrate-resistant acid phosphatase (TRAP); assay: Quantitative real-time PCR, TRAP mRNA in RAW264.7 cells; assay type: cell-based, mouse; settings: day 2
Description: as §1, §2, §3

[4] = system: RAW264.7 mouse pre-osteoclast (monocyte/macrophage) cells; assay: Cell mortality and live cell numbers (trypan blue, hemacytometer); assay type: cell-based; settings: incubation with RANKL (20 ng/ml), 24 h
Description: METHOD EXAMPLE. Cell culture. MC3T3 E1 mouse osteoblast-like cells (clone 14—MC3T3 E1-14; and no clonal cells in supplementary figures), and RAW264.7 mouse pre-osteoclast (monocyte/macrophage) cells were cultured in αMEM containing 10% fetal bovine serum and antibiotics (50 units/ml penicillin, and 50 μg/ml streptomycin; Life Technologies, Grand Island, N.Y., USA). Cells were maintained at 37° C. and 5% CO2 in a humidified incubator. Cell mortality and live cell numbers were determined 24 h after the treatment with 20 ng/ml RANKL (PeproTech, Rocky Hills, N.C., USA) in response to 0.1-20 μM salubrinal or 1-20 μM guanabenz acetate (Tocris Bioscience, Ellisville, Mo., USA). Cells were stained with trypan blue and the numbers of live and dead cells were counted using a hemacytometer.
METHOD EXAMPLE. Inhibition of osteoclastogenesis of RAW264.7 cells by salubrinal. The primary aim of this study is to evaluate the effects of salubrinal on osteoclastogenesis. In response to 0.1-20 μM salubrinal for 24 h, cell mortality and live cell numbers of RAW264.7 pre-osteoclasts was examined. […] The number of live cells was increased by ˜50% by incubation with RANKL, and administration of 10-20 μM salubrinal reduced the numbers approximately by 10% (FIG. 3B).
METHOD EXAMPLE. Inhibitory effects of guanabenz on osteoclastogenesis of RAW264.7 cells. To further examine a potential involvement of p-eIF2α in regulation of osteoclastogenesis, we employed guanabenz that also acts as an inhibitor of de-phosphorylation of eIF2α was evaluated. […] Compared to the number of TRAP-positive multi-nucleated cells of 377 39 (RANKL only), guanabenz reduced the number of differentiated osteoclasts to 364±38 (1 μM), 288±51 (5 μM), 189±25 (10 μM), and 73±16 (20 μM).

NFATc1 [5] = assay: Western immunoblotting, NFATc1 expression in RAW264.7 cells; assay type: cell-based, mouse; settings: 24 h
Description: METHOD EXAMPLE. Downregulation of NFATcl in RAW264.7 cells by salubrinal. NFATcl is a transcription factor critical for activating osteoclastogenesis. […] The RANKL-induced expression of NFATcl was reduced by administration of 5-20 μM salubrinal on both days, and the effect of salubrinal was dose dependent (FIG. 4).
as §3
METHOD EXAMPLE. Western Immunoblotting. Cells were lysed in a radioimmunoprecipitation assay (RIPA) buffer containing protease inhibitors (Santa Cruz Biotechnology, Santa Cruz, Calif., USA) and phosphatase inhibitors (Calbiochem, Billerica, Mass., USA). Isolated proteins were fractionated using 10-15% SDS gels and electro-transferred to Immobilon-P membranes (Millipore, Billerica, Mass., USA). The membrane was incubated for 1 h with primary antibodies followed by 45 min incubation with goat anti-rabbit or anti-mouse IgG conjugated with horseradish peroxidase (Cell Signaling, Danvers, Mass., USA). We used antibodies against ATF4, NFATcl (Santa Cruz), p-eIF2α (Thermo Scientific, Waltham, Mass., USA), eIF2α, caspase 3, cleaved caspase 3, p38 and p-p38 mitogen activated protein kinase (MAPK), extracellular signal-regulated kinase (ERK) and p-ERK, nuclear factor kappa B (NFκB) p65 and p-NFκB p65 (Cell Signaling), and β-actin (Sigma). Protein levels were assayed using a SuperSignal west femto maximum sensitivity substrate (Thermo Scientific), and signal intensities were quantified with a luminescent image analyzer (LAS-3000, Fuji Film, Tokyo, Japan).
METHOD EXAMPLE. Temporal profile of p-eIF2α and NFATcl. […] Note that the normalized level of “1” in FIG. 6C was defined as the level for the cells that were not treated with RANKL without administration of guanabenz.

B1: RANKL: cytokine belonging to the tumor necrosis factor family; stimulus for osteoclast differentiation (PeproTech) (protein, UniProt O14788 140-317, looked up)
Tumor necrosis factor ligand …: IRAEKAMVDGSWLDLAKRSKLEAQPFAHLTINATDIPSGSHKVSLSSWYHDRGWAKISNMTFSNGKLIVNQDGFYYLYANICFRHHETSGDLATEYLQLMVYVTKTSIKIPSSHTLMKGGSTKYWSGNSEFHFYSINVGGFFKLRSGEEISIEVSNPSLLDPDQDATYFGAFKVRDID
RANKL-driven increase of NFATc1 mRNA level (NFATc1 [1]): 9.4±0.5 fold | RANKL-driven increase of OSCAR mRNA level [2]: 467±22 fold | RANKL-driven increase of c-fos mRNA level (c-Fos): 1.9±0.1 fold | RANKL-driven increase of TRAP mRNA level [3]: 165±4.2 fold | increase of the number of live cells [4]: ~50% | elevation of NFATc1 by addition of RANKL (NFATc1 [5]): 13.4±3.2 fold
